Data on one substance can be found in US5876710A, “Compounds and compositions for delivering active agents” (Emisphere Technologies Inc., priority 1997, dated 1999).

Details of this data set: species or system Rats. The settings on record: rat, in vivo, po, 1 mg/kg.

For the substance interferon, the “Mean peak serum interferon concentration” value is reported as 1951±1857.
